Assay [1] concerns the target human IGF1R on cells (human) (UniProt P08069). Description: FACS on JIMT-1 cells (FL1-H), anti-human FITC; MFI of 2nd Ab only 1.89, untreated 1.36.
Assay [2] has the same target. Briefly: FACS on MCF-7 cells (FL1-H), anti-human FITC; MFI of 2nd Ab only 4.53, untreated 2.51.
For assay [3] the target is unchanged. Briefly: FACS on BT474 cells (FL1-H), anti-human FITC; MFI of 2nd Ab only 1.93, untreated 1.8.

IMC-A12 (antibody), sequence (VH): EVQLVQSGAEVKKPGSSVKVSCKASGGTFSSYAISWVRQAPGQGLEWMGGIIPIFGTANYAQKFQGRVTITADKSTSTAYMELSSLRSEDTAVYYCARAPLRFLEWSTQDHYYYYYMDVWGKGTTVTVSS
IMC-A12 (antibody), sequence (VL): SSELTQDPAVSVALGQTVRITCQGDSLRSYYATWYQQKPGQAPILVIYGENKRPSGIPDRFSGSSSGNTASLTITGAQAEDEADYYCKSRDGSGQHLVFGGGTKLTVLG

IMC-A12 (antibody): the results for the MFI in assay [1], in assay [2] and in assay [3] were 23, 40.1 and 18.3, respectively.

The values are drawn from US20240101687A1.
